From publication PMC10082759, “Shieldin complex assembly kinetics and DNA binding by SHLD3” (Communications Biology, 2022)

Legend:
[1] = molecular target: REV7 (Homo sapiens) (UniProt Q9UI95); conditions: cited from earlier work
[2] = molecular target: T1, SHLD3;SHLD2 1-95;REV7 R124A (human;human;human, UniProt Q6ZNX1;Q86V20-2;Q9UI95 1-250;1-95;1-211, ||R124A); test: analytical size-exclusion chromatography co-migration; excess DNA; 20 mM Na-HEPES pH 7.5, 5% glycerol, 100 mM NaCl, 0.5 mM TCEP; 10 nM DNA, 30 min, room temperature; conditions: protein: recombinant;recombinant;recombinant, tags: tags cleaved (PreScission);GST tag, copies: 1;1;2, label: 5(6)-FAM
Target sequence in this assay (Q9UI95 whole entry R124A, one chain of several): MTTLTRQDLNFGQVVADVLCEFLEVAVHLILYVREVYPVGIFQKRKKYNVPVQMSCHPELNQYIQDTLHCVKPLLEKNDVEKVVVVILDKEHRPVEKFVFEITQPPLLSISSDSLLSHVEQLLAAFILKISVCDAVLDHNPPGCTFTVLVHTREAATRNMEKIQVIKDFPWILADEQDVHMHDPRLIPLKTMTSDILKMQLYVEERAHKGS

[3] = molecular target: T1, SHLD3;SHLD2 1-95;REV7 R124A; test: fluorescence anisotropy; 20 mM Na-HEPES pH 7.5, 5% glycerol, 100 mM NaCl, 0.5 mM TCEP; 10 nM DNA, 30 min, room temperature; conditions: protein: recombinant;recombinant;recombinant, tags: tags cleaved (PreScission);GST tag, cleaved (PreScission);tags cleaved (PreScission), copies: 1;1;2
Target sequence in this assay (Q6ZNX1 whole entry, chain 1 of 3): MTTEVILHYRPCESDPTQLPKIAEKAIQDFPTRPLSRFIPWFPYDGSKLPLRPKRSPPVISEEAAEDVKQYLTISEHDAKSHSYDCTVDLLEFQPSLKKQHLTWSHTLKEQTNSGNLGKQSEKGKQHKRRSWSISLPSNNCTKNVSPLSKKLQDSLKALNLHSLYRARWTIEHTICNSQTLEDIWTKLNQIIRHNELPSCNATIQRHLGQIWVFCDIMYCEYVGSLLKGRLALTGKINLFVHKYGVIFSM
Target sequence in this assay (Q86V20 1-95, chain 2 of 3): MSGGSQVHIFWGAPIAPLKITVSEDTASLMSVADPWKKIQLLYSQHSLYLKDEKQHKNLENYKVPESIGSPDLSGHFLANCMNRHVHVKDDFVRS
Target sequence in this assay (Q9UI95 whole entry R124A, chain 3 of 3): as the sequence (Q9UI95 whole entry R124A, one chain of several) above

[4] = molecular target: T2, SHLD3 CTD (human, UniProt Q6ZNX1 140-250); test: fluorescence anisotropy; Kd similar to the Shieldin complex; 20 mM Na-HEPES pH 7.5, 5% glycerol, 100 mM NaCl, 0.5 mM TCEP; 10 nM DNA, 30 min, room temperature; conditions: protein: recombinant, tags: MBP or GST tag, cleaved (PreScission)
T2 sequence: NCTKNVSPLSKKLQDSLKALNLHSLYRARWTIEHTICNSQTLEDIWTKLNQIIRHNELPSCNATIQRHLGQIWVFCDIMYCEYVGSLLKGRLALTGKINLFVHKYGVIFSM

[5] = molecular target: SHLD3 1-83;SHLD2 1-60;REV7 (human;human;human, UniProt Q6ZNX1;Q86V20-2;Q9UI95 1-83;1-60;1-211, del84-250||); test: fluorescence anisotropy; 20 mM Na-HEPES pH 7.5, 5% glycerol, 100 mM NaCl, 0.5 mM TCEP; 10 nM DNA, 30 min, room temperature; conditions: protein: recombinant;recombinant;recombinant; tags: ;;; copies: 1;1;2; label: 5(6)-FAM
Chain of SHLD3 1-83;SHLD2 1-60;REV7 (Q9UI95 whole entry, stated change not applied, one chain of several): as the sequence (Q9UI95 whole entry R124A, one chain of several) above, with A124R counted along it

[6] = molecular target: T3, REV7^WT (human, UniProt Q9UI95 1-211); test: SPR; SHLD3^1–62 or REV3^1871–2014 immobilised on SCR HC30M chip by EDC-NHS; REV7 injected in two-fold dilutions; buffer B with 0.05% Tween 20; conditions: both partners purified
T3 construct: REV7 (MAD2L2), human; The methods say in general that the MBP or GST tag was cleaved with PreScission protease; here the protein is labelled without a tag; also called MAD2L2; wild-type REV7; source: E. coli LOBSTR, purified (metal chelating column, tag cleavage, SEC); not shown: hexahistidine-MBP or GST, N-terminal, cleaved
T3 sequence (Q9UI95 whole entry): as the sequence (Q9UI95 whole entry R124A, one chain of several) above, with A124R counted along it

[7] = molecular target: REV7^R124A (human, UniProt Q9UI95 1-211, R124A); test: SPR
[8] = molecular target: T4, REV7^R124A (human, UniProt Q9UI95 1-211, R124A); test: SPR; SHLD3^1–62 or REV3^1871–2014 immobilised on SCR HC30M chip by EDC-NHS; REV7 injected in two-fold dilutions; buffer B with 0.05% Tween 20; conditions: both partners purified
T4 construct: REV7 (MAD2L2), human; also called dimerization mutant; source: E. coli LOBSTR, purified (metal chelating column, tag cleavage, SEC); not shown: hexahistidine-MBP or GST, N-terminal, cleaved
T4 sequence (Q9UI95 whole entry R124A): as the sequence (Q9UI95 whole entry R124A, one chain of several) above

[9] = molecular target: T5, preformed REV7^ΔN-SHLD3 (human, UniProt Q9UI95 15-211; Q6ZNX1 1-62); test: SEC; 5 µM preformed REV7^ΔN-SHLD3 with 10 µM MBP-SHLD2^1–60 and MBP-REV7^core, 30 min on ice, Superdex-200 3.2/300 in buffer B; conditions: both partners purified
T5 construct: REV7 (MAD2L2), human, without the N-terminal 14 residues; as m8; SHLD3, human, residues 1-62; as m16; source: E. coli LOBSTR, purified components, complex formed beforehand; not shown: hexahistidine-MBP or GST, N-terminal, cleaved; GST, N-terminal, kept
T5 sequence (Q9UI95 15-211, stated change not applied, one chain of several): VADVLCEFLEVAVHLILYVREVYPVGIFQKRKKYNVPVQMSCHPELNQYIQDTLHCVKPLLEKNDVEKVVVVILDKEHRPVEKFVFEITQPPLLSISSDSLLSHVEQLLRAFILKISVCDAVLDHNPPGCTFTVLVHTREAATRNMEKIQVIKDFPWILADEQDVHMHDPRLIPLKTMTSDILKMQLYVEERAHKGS

[10] = molecular target: T6, pre-formed GST-SHLD3^1–62-REV7 (human, UniProt Q6ZNX1 1-62; Q9UI95 1-211); test: pull-down; MBP-SHLD2^1–60 as bait, five-minute incubation at 4 °C with REV7 and GST-SHLD3^1–62 or with pre-formed GST-SHLD3^1–62-REV7 and additional REV7; conditions: both partners purified
T6 construct: SHLD3, human, residues 1-62; as m16; REV7 (MAD2L2), human; as m1; also called GST-SHLD3^1–63-REV7 (methods); pre-formed REV7-SHLD3; source: E. coli LOBSTR, purified components, complex formed beforehand in the absence of SHLD2; not shown: GST, N-terminal, kept; hexahistidine-MBP or GST, N-terminal, cleaved
T6 sequence (Q9UI95 whole entry, the tested form may be a part, one chain of several): as the sequence (Q9UI95 whole entry R124A, one chain of several) above, with A124R counted along it

[11] = label: 5(6)-FAM on strand 1, blunt

Molecule: REV7 (from UniProt Q9UI95)
- Kd [1]: 2000 nM

Molecule: AAGGGGAGCGGGGGAGGATAATAGGAAGGGGAGCGGGGGAGGATAATAGG (ssDNA) [50 nt ssDNA]
- binding result [2]: binds

B1: non-telomeric dsDNA (dsDNA)
DNA 1: AGTGCCAGTGCC
DNA 2: GGCACTGGCACT
- Kd [3, 11]: 166 nM
- binding result [4, 11]: binds

B2: dsTelo (dsDNA)
DNA 1: TTAGGGTTAGGG
DNA 2: CCCTAACCCTAA
- Kd [3, 11]: 180 nM
- binding result [4, 11]: binds

Molecule: AGTGCCAGTGCC (ssDNA) [non-telomeric ssDNA]
- Kd ([3]; label: 5(6)-FAM): 137 nM
- binding result [5]: no binding
- binding result ([4]; label: 5(6)-FAM): binds

Molecule: TTAGGGTTAGGG (ssDNA) [telomeric ssDNA]
- Kd ([3]; label: 5(6)-FAM): 207 nM
- binding result ([4]; label: 5(6)-FAM): binds

B3: REV3^1871–2014 (domain or fragment, human, UniProt O60673 1871-2014, looked up)
chain: TPRTANILKPLMSPPSREEIMATLLDHDLSETIYQEPFCSNPSDVPEKPREIGGRLLMVETRLANDLAEFEGDFSLEGLRLWKTAFSAMTQNPRPGSPLRSGQGVVNKGSSNSPKMVEDKKIVIMPCKCAPSRQLVQVWLQAKE
notes: REV3, human, residues 1871-2014 (holds RBM1 1875-1896 and RBM2 1991-2012); Named without a tag; the methods say in general that tags were cleaved; source: E. coli LOBSTR, purified; not shown: hexahistidine-MBP or GST, N-terminal, cleaved
- binding result [6]: binds

B4: SHLD3^1–62 (domain or fragment, human, UniProt Q6ZNX1 1-62, looked up)
chain: MTTEVILHYRPCESDPTQLPKIAEKAIQDFPTRPLSRFIPWFPYDGSKLPLRPKRSPPVISE
notes: the methods say in general that tags were cleaved; also called SHLD3^RBM; source: E. coli LOBSTR, purified; not shown: hexahistidine-MBP or GST, N-terminal, cleaved
- Kd [7]: ~67 nM
- Kd [6]: ~50 nM
- binding result [8]: binds

B5: MBP-SHLD2^1–60 (domain or fragment, human, UniProt Q86V20-2 1-60, looked up)
chain: MSGGSQVHIFWGAPIAPLKITVSEDTASLMSVADPWKKIQLLYSQHSLYLKDEKQHKNLE
notes: SHLD2, human, N-terminal residues 1-60; source: E. coli LOBSTR, purified; not shown: hexahistidine-MBP, N-terminal, kept
- binding result [9]: binds
- binding result [10]: binds
